Targets include human GLP-R (human) (UniProt P43220); human GIP-R (human) (UniProt P48546); human GCG-R (human) (UniProt P47871).
Test in all cases: cell-based or functional assay

human GLP-R (human), sequence (P43220 24-463): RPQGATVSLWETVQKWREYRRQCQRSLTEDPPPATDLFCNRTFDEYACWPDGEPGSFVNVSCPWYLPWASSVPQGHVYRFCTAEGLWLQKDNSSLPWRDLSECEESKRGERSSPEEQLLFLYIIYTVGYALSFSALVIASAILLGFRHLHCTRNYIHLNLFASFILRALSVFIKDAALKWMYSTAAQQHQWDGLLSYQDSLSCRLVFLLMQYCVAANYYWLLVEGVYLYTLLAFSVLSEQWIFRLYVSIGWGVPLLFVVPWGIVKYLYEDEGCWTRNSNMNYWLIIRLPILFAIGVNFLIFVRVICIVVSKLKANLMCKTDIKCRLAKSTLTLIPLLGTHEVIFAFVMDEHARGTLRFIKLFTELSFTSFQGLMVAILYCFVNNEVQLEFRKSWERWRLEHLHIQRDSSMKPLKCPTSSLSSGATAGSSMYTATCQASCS
human GIP-R (human), sequence (P48546 22-466): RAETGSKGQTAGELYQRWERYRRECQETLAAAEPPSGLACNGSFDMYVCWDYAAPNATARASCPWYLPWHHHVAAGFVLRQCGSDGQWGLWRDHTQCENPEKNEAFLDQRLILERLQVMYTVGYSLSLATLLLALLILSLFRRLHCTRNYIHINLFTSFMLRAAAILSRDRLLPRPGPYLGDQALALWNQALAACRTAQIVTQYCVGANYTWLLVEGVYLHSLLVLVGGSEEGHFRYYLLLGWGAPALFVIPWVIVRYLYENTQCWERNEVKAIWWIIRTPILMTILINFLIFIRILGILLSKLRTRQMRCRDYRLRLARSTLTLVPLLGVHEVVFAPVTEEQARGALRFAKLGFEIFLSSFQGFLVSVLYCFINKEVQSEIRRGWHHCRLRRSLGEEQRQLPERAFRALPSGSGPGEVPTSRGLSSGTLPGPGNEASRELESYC
Dulaglutide (Fc fusion), sequence (chain): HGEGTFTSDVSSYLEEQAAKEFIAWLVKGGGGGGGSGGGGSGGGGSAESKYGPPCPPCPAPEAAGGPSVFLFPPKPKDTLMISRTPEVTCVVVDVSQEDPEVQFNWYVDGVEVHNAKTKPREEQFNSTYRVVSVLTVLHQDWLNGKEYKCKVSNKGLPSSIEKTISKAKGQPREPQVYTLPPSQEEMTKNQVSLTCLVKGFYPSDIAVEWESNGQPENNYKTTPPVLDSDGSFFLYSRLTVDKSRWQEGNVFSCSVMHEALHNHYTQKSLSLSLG
human GCG-R (human), sequence (P47871 26-477): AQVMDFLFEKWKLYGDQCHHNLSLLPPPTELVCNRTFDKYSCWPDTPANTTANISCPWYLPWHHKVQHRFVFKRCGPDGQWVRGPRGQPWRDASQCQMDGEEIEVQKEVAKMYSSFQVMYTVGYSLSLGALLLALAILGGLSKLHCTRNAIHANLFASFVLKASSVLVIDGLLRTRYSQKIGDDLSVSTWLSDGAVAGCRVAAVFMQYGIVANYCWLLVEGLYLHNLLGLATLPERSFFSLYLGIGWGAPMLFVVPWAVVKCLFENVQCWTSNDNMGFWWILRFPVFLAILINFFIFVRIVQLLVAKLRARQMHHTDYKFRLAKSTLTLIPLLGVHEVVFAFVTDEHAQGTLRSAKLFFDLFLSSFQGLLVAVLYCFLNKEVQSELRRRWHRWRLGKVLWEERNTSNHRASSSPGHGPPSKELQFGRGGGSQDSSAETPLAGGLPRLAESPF

G3Fc only (from UniProt P0DOX5 223-449) displayed an EC50 [nM], GLP1-R (cAMP assay) in the experiment with human GLP-R (human) of over 600 nM. In the experiment with human GIP-R (human), this substance gave an EC50 [nM], GIP-R (cAMP assay) of over 600 nM.

In the experiment with human GLP-R (human), Dulaglutide (Fc fusion) registered a % max GLP-1, human GLP-R (cAMP assay) of 98.2% and an EC50 [nM], human GLP-R (cAMP assay) of 0.129 nM. In addition, in the experiment with human GCG-R (human), the % max GCG, human GCG-R (cAMP assay) stood at 1.6% and the EC50 [nM], human GCG-R (cAMP assay) is over 600 nM. In addition, in the experiment with human GIP-R (human), the % max GIP, human GIP-R (cAMP assay) came out at 13.8% and the EC50 [nM], human GIP-R (cAMP assay) is over 600 nM.

(Values after patent publication US20160310575A1.)
